B1: Nse5-LexA (wild type) [S. cerevisiae] / Nse6-AD [S. cerevisiae] (parent complex)
chain 1: MDGALINSVLYVSPRNGAHYFVELTEKHLLAFEMLNSMCLLENYDHVLLFLECQFGKSHNLAVIPFDIILVLFTLSTLSEYYKEPILRANDPYNTSRETLSRRALKLLQKYLAILKEFDSEQYNLYDLELLRCQFFLAIDTLTPKKQKWGFDRFRRTKSESGVTYRQNASVDPELDQAKTFKNPYRSYISCLEQRNTILGNRLLNLKLNEPGEFINMILWTLSNSLQESTPLFLSSHEIWMPLLEILIDLFSCRQDYFIQHEVAQNVSKSLFVQRLSESPLAVFFESLNTRNFANRFSEYVFLNCDYKLPSDNYATPVHPVYNGENTIVDTYIPTIKCSPLYKSQKSLALRRKLIGSCFKLLLRVPDGHRLITPRIVADDVIQGISRTLASFNDILQFKKFFMTENLSQESYFIPLLAEGTLSEILKDTQECVVILTLVENLSDGVSFCNEVIGLVKSKCFAFTEQCSQASYEEAVLNIEKCDVCLLVLLRYLLHLIGTEAILDAKEQLEMLHAIEKNDSGRRQWAKALNLGNDPPLLYPIVSQMFGVHDKSVIIE
chain 2: MGSVNSSPNEEFETVPDSQISGFDSPLIPTSVGSYFRDDDDDEKVHPNFISDPENDSLNSDEEFSSLENSDLNLSGAKAESGDDFDPILKRTIISKRKAPSNNEDEEIVKTPRKLVNYVPLKIFNLGDSFDDTITTTVAKLQDLKKEILDSPRSNKSIVITSNTVAKSELQKSIKFSGSIPEIYLDVVTKETISDKYKDWHFISKNCHYEQLMDLEMKDTAYSFLFGSSRSQGKVPEFVHLKCPSITNLLVLFGVNQEKCNSLKINYEKKENSRYDNLCTIFPVNKMLKFLMYFYSDDDNDDVREFFLKAFICLILDRKVFNAMESDHRLCFKVLELFNEAHFINSYFEIVDKNDFFLHYRLLQIFPHLQSALLRRRFSEKQGRTETIQQNIIKEFNEFFDCKNYKNLLYFILTMYGSKFIPFGPKCQVTEYFKDCILDISNETTNDVEISILKGILNLFSKIR
B2: Nse5-LexA (wild type) [S. cerevisiae] / Smt3-AD [S. cerevisiae] (parent complex)
chain 1: B1 chain 1
chain 2: MSDSEVNQEAKPEVKPEVKPETHINLKVSDGSSEIFFKIKKTTPLRRLMEAFAKRQGKEMDSLRFLYDGIRIQADQTPEDLDMEDNDIIEAHREQIGGATY

Variants of: B1
Assay: yeast two-hybrid (β-galactosidase); gal (induced) bar; parent: 2.45e+03
For chain 1 Y123H, the response was 2190 β-galactosidase activity units.
In the case of chain 1 H319Y, the response is reported as 2070 β-galactosidase activity units.
For chain 1 N183D, the response was 2140 β-galactosidase activity units.
For chain 1 Y111H, the response was 2170 β-galactosidase activity units.

Variants of: B1
Assay: yeast two-hybrid (β-galactosidase); gal (induced) bar; vector bait control 2.8; parent: 2.45e+03
In the case of chain 1 L247A, the response is reported as 2570 β-galactosidase activity units.
In the case of chain 1 L70A, the response is reported as 2130 β-galactosidase activity units.

Variants of: B2
Assay: yeast two-hybrid (β-galactosidase); gal (induced) bar; vector bait control 7.3; parent: 1.95e+03
For chain 1 L70A, the response was 7.8 β-galactosidase activity units.
chain 1 L70A, chain 1 L247A was tested, and the response was 6.6 β-galactosidase activity units.
With chain 1 L247A the response was 7.4 β-galactosidase activity units.
